molecular target: Mouse monoclonal antibody 1F9 (isotype IgG2b with a Kappa light chain); assay: phage ELISA; conditions: immobilized 1F9; phage dilution 5 (first point of the series); duplicate; parent: est. 0.88; read off a plot

In order of rising response (absorbance 450 nm):
1. 3D7 AMA1 domain I expressed on M13 phage D204N  0.06
2. 3D7 AMA1 domain I expressed on M13 phage F201V  0.06
3. 3D7 AMA1 domain I expressed on M13 phage H200L  0.17
4. 3D7 AMA1 domain I expressed on M13 phage N228K  0.38
5. 3D7 AMA1 domain I expressed on M13 phage F201L  0.53
